Experimental data reported in patent publication US20120288510A1 (UNIVERSITY OF MASSACHUSETTS, published 2012).
Like-named read-outs stand apart in the source and are kept apart here. No end group written: not given here.

What was measured:
[1] = molecular target: T1, Q412A (not fully specified); assay: ELISA on coated bacterial fusion protein; two-fold antibody dilutions; goat anti-human AP, PNPP
T1 construct: alanine scanning mutant of E2-G; also called pET32-E2-G-Q412A; not shown: N-terminal thioredoxin partner and vector-encoded stretch of pET32
T1 chain: ALINTNGSWHINHHHHHH

[2] = molecular target: T2, I414A (not fully specified); assay: as above
T2 construct: alanine scanning mutant of E2-G; also called pET32-E2-G-I414A (printed in the text as pET32-E2-G-1414A); not shown: N-terminal thioredoxin partner and vector-encoded stretch of pET32
T2 chain: QLANTNGSWHINHHHHHH

[3] = molecular target: T3, N415A (not fully specified); assay: as above
T3 construct: alanine scanning mutant of E2-G; also called pET32-E2-G-N415A; not shown: N-terminal thioredoxin partner and vector-encoded stretch of pET32
T3 chain: QLIATNGSWHINHHHHHH

[4] = molecular target: T4, T416A; assay: as above
T4 construct: alanine scanning mutant of E2-G; also called pET32-E2-G-T416A; not shown: N-terminal thioredoxin partner and vector-encoded stretch of pET32

[5] = molecular target: T5, N417A; assay: as above
T5 construct: alanine scanning mutant of E2-G; also called pET32-E2-G-N417A

[6] = molecular target: T6, S419A; assay: as above
T6 construct: alanine scanning mutant of E2-G; also called pET32-E2-G-S419A

[7] = molecular target: T7, H421A; assay: as above
T7 construct: alanine scanning mutant of E2-G; also called pET32-E2-G-H421A

[8] = molecular target: T8, I422A; assay: as above
T8 construct: alanine scanning mutant of E2-G; also called pET32-E2-G-I422A (printed in the text as pET32-E2-G-1422A)

[9] = molecular target: T9, N423A; assay: as above
T9 construct: alanine scanning mutant of E2-G; also called pET32-E2-G-N423A

[10] = molecular target: T10, E2-G bacterially expressed thioredoxin fusion protein (pET32-E2-G, E2 amino acids 412 to 423) (Hepatitis C virus genotype 1a, not fully specified (N-terminus); also: N-terminal thioredoxin fusion partner); assay: as above
T10 construct: also called WT; not shown: thioredoxin, N-terminal fusion partner of the pET32 vector; C-terminal myc and 6 histidine tags
T10 chain: QLINTNGSWHIN-{myc tag-His6}

[11] = molecular target: E2-D; assay: as above
[12] = molecular target: T10, E2-G bacterially expressed thioredoxin …; assay: as above
[13] = molecular target: T11, E2-G bacterially expressed fusion protein with the E2 412-423 sequence of genotype 2b (Hepatitis C virus genotype 2b, also: vector linker residues not given here); assay: as above
T11 construct: not shown: thioredoxin, N-terminal fusion partner of the pET32 vector; C-terminal myc and 6 histidine tags
T11 chain: thioredoxin-HLVNSNGSWHIN-{myc tag-His6 tag}

[14] = molecular target: T12, E2-G bacterially expressed fusion protein with the E2 412-423 sequence of genotype 3a (Hepatitis C virus genotype 3a, also: vector linker residues not given here); assay: as above
T12 construct: not shown: thioredoxin, N-terminal fusion partner of the pET32 vector; C-terminal myc and 6 histidine tags
T12 chain: thioredoxin-QLVNSSGSWHIN-{myc tag-His6 tag}

[15] = molecular target: T13, E2-G bacterially expressed fusion protein with the E2 412-423 sequence of genotype 4a (Hepatitis C virus genotype 4a, also: vector linker residues not given here); assay: as above
T13 construct: not shown: thioredoxin, N-terminal fusion partner of the pET32 vector; C-terminal myc and 6 histidine tags
T13 chain: thioredoxin-QLINSNGSWHIN-{myc tag-His6 tag}

[16] = molecular target: T14, E2-G bacterially expressed fusion protein with the E2 412-423 sequence of genotype 6g (Hepatitis C virus genotype 6g, not fully specified (N-terminus); also: N-terminal thioredoxin fusion partner); assay: as above
T14 construct: not shown: thioredoxin, N-terminal fusion partner of the pET32 vector; C-terminal myc and 6 histidine tags
T14 chain: QLIKTNGSWHIN-{myc tag-His6}

[17] = molecular target: T15, E2-G bacterially expressed fusion protein with the E2 412-423 sequence of genotype 6k (Hepatitis C virus genotype 6k, not fully specified (N-terminus); also: N-terminal thioredoxin fusion partner); assay: as above
T15 construct: not shown: thioredoxin, N-terminal fusion partner of the pET32 vector; C-terminal myc and 6 histidine tags
T15 chain: QLINSNGSWHVN-{myc tag-His6}

[18] = molecular target: T10, E2-G bacterially expressed thioredoxin …; assay: Biacore SPR; antibody captured on goat anti-human IgG Fc, E2-G flowed over at varying concentrations; BIAevaluation fit
[19] = molecular target: E2-G bacterially expressed fusion protein with the E2 412-423 sequence of a genotype 5 strain (genba (Hepatitis C virus genotype 5)); assay: ELISA, fusion protein coated on plate
[20] = molecular target: T1, Q412A; assay: ELISA on coated bacterial fusion protein; two-fold antibody dilutions; goat anti-human AP, PNPP
[21] = molecular target: L413A; assay: as above
[22] = molecular target: T2, I414A; assay: as above
[23] = molecular target: T3, N415A; assay: as above
[24] = molecular target: T4, T416A; assay: as above; remark: listed apart in the source
[25] = molecular target: T5, N417A; assay: as above; remark: listed apart in the source
[26] = molecular target: T16, G418A; assay: as above
T16 construct: alanine scanning mutant of E2-G; also called pET32-E2-G-G418A

[27] = molecular target: T6, S419A; assay: as above; remark: listed apart in the source
[28] = molecular target: T7, H421A; assay: as above; remark: listed apart in the source
[29] = molecular target: T8, I422A; assay: as above; remark: listed apart in the source
[30] = molecular target: T9, N423A; assay: as above; remark: listed apart in the source
[31] = molecular target: T10, E2-G bacterially expressed thioredoxin …; assay: as above
[32] = molecular target: E2-D; assay: as above; remark: listed apart in the source
[33] = molecular target: T10, E2-G bacterially expressed thioredoxin …; assay: as above
[34] = molecular target: T10, E2-G bacterially expressed thioredoxin …; assay: as above
[35] = molecular target: T11, E2-G bacterially expressed fusion …; assay: as above
[36] = molecular target: T12, E2-G bacterially expressed fusion …; assay: as above
[37] = molecular target: T13, E2-G bacterially expressed fusion …; assay: as above
[38] = molecular target: T17, E2-G bacterially expressed fusion protein with the E2 412-423 sequence of genotype 5a (Hepatitis C virus genotype 5a, not fully specified (N-terminus); also: N-terminal thioredoxin fusion partner); assay: as above
T17 construct: not shown: thioredoxin, N-terminal fusion partner of the pET32 vector; C-terminal myc and 6 histidine tags
T17 chain: QFVNTNGSWHIN-{myc tag-His6}

[39] = molecular target: T14, E2-G bacterially expressed fusion …; assay: as above
[40] = molecular target: T15, E2-G bacterially expressed fusion …; assay: as above
[41] = molecular target: T18, soluble HCV genotype 1b E2-661 (pCDNA-1b-E2-661) (Hepatitis C virus genotype 1b); assay: ELISA on plate coated with 2 µg/ml antigen; two-fold antibody dilutions; goat anti-human AP, PNPP
T18 construct: range 364-661

Chain of E2-D (P27958 436-463, tags left off): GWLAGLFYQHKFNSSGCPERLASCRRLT

B1: human antibody 83-128 (antibody, V domains shown)
VH: QVQLVESGGGVVQPGRSLRLSCTASGFTFNNYGMHWVRQTPGKGLEWLAVIWFDENNKYYADSVRGRFTISRDNSKNTLFLQMNSLKTEDTAMYYCARDISLVRDAFIYFDFWGLGTLVTVSS
VL: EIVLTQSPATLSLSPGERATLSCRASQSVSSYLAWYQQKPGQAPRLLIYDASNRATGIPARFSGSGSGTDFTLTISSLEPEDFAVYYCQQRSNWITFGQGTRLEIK
B1 was tested, and the “EC50 (read off the curve)” value [1] was about 0.02 µg/mL, the “EC50 (read off the curve)” value [2] was about 0.03 µg/mL and the “EC50 (read off the curve)” value [3] was about 0.02 µg/mL. The “EC50 (read off the curve)” value [4] was about 0.02 µg/mL, the “EC50 (read off the curve)” value [5] was about 0.02 µg/mL and the “EC50 (read off the curve)” value [6] was about 0.02 µg/mL. For the same binder, the “EC50 (read off the curve)” value [7] was about 0.02 µg/mL, the “EC50 (read off the curve)” value [8] was about 0.02 µg/mL and the “EC50 (read off the curve)” value [9] was about 0.02 µg/mL. For the same binder, the “EC50 (read off the curve)” value [10] was about 0.02 µg/mL, the binding result [11] was “no binding (tested: 1 µg/ml)” and the “EC50 (read off the curve)” value [12] was about 0.006 µg/mL. For the same binder, the “EC50 (read off the curve)” value [13] was about 0.006 µg/mL, the “EC50 (read off the curve)” value [14] was about 0.006 µg/mL and the “EC50 (read off the curve)” value [15] was about 0.006 µg/mL. For the same binder, the “EC50 (read off the curve)” value [16] was about 0.006 µg/mL, the “EC50 (read off the curve)” value [17] was about 0.006 µg/mL and the Kd [18] was 3.8 nM. It also gave a koff [18] of 0.00073 s⁻¹ and a kon [18] of 190000 M⁻¹ s⁻¹.

B2: human antibody 95-2 (antibody, V domains shown)
VH: QVQLVESGGGVVQPGRSLRLSCAASGFTFSSYGMHWVRQAPGKGLEWVAVIWFDGNNQYYADSVKGRFTISRDNSKNTLYLQMNSLRAEDTAVYYCARDIFTVVRGFFIYFDYWGQGTLVTVSS
VL: EIVLTQSPATLSLSPGERATLSCRASQSVGSYLAWYQQKPGQAPRLLIYDASNRATGIPARFSGSGSGTDFTLTISSLEPEDFAVYYCQQRSNWVTFGQGTRLEIK
notes: also called clone 95-2
For B2, the “fold reduction of recognition (reference not named)” value [19] was 10 fold, the “EC50 (read off the curve)” value [20] was about 0.02 µg/mL and the binding result [21] was “binds”. The “EC50 (read off the curve)” value [22] was about 0.02 µg/mL, the “EC50 (read off the curve)” value [23] was about 0.02 µg/mL and the “EC50 (read off the curve)” value [24] was about 0.02 µg/mL. For the same binder, the “EC50 (read off the curve)” value [25] was about 0.02 µg/mL, the “EC50 (read off the curve)” value [26] was about 0.03 µg/mL and the “EC50 (read off the curve)” value [27] was about 0.02 µg/mL. For the same binder, the “EC50 (read off the curve)” value [28] was about 0.02 µg/mL, the “EC50 (read off the curve)” value [29] was about 0.02 µg/mL and the “EC50 (read off the curve)” value [30] was about 0.02 µg/mL. For the same binder, the “EC50 (read off the curve)” value [31] was about 0.02 µg/mL, the binding result [32] was “no binding (tested: 1 µg/ml)” and the “EC50 (read off the curve)” value [33] was about 0.04 µg/mL. For the same binder, the “EC50 (read off the curve)” value [34] was about 0.02 µg/mL, the “EC50 (read off the curve)” value [35] was about 0.02 µg/mL and the “EC50 (read off the curve)” value [36] was about 0.02 µg/mL. For the same binder, the “EC50 (read off the curve)” value [37] was about 0.02 µg/mL, the “EC50 (read off the curve)” value [38] was about 0.02 µg/mL and the “EC50 (read off the curve)” value [39] was about 0.02 µg/mL. The “EC50 (read off the curve)” value [40] was about 0.02 µg/mL, the “EC50 (read off the curve)” value [41] was about 0.1 µg/mL and the Kd [18] was 1.9 nM. The koff [18] was 0.0003 s⁻¹ and the kon [18] was 160000 M⁻¹ s⁻¹.
